US20060073152A1 (Genentech, published 2006)
Positions of bridges follow the written chain, without caps; N, C: chain ends. No end group written: not given here.

Assays:
rabbit serum albumin [1] = target: T1, rabbit serum albumin (rabbit, UniProt P49065 25-608); experiment: peptide competition; head prints RSA, read as rabbit
T1 construct: also called Rabbit SA; BuSA

rat serum albumin = target: T2, rat serum albumin (rat, UniProt P02770 25-608); experiment: phage binding
T2 construct: also called Rat SA; RSA
T2 sequence (P02770 25-608 limits assumed): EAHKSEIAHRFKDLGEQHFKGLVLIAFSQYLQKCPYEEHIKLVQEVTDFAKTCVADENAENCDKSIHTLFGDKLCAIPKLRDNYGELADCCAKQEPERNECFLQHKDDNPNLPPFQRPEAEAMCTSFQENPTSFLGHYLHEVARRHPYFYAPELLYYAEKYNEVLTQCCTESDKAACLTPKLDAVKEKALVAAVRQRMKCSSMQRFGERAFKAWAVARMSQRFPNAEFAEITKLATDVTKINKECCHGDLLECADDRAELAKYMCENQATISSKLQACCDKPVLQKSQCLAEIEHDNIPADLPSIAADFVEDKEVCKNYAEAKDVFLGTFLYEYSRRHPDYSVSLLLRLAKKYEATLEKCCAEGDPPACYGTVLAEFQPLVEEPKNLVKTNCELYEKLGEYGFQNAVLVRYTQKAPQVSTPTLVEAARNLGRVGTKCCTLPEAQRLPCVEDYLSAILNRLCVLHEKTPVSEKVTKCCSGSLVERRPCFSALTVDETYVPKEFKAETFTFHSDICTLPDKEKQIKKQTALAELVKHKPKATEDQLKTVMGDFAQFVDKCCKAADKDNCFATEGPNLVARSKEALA

human serum albumin = target: T3, human serum albumin (human, UniProt P02768 25-609); experiment: phage binding
T3 construct: also called Human SA; HuSA

rabbit serum albumin [2] = target: T1, rabbit serum albumin; experiment: phage binding

T1 sequence (P49065 25-608 limits assumed): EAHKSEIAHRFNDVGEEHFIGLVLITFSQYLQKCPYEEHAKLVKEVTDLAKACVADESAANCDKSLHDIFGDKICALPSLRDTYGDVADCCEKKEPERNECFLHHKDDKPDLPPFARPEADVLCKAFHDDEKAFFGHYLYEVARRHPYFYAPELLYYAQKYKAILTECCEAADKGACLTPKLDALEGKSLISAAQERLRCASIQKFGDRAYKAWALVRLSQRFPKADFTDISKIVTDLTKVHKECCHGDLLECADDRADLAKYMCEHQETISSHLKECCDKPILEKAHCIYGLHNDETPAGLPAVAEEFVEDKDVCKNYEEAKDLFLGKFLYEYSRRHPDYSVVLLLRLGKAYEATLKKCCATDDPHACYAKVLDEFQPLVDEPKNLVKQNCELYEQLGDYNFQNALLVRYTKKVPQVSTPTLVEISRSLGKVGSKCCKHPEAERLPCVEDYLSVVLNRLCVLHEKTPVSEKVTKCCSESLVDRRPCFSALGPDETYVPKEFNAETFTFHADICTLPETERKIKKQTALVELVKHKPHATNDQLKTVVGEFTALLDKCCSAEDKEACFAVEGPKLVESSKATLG

Binder	IC50 (rabbit serum albumin [1]) [nM]	binding result (rat serum albumin)	also measured
Ac-DICLPRWGCLWED-NH2 (disulfide 3-9 (inferred), free peptide) [SA26]	3120	–	–
MFDLCLPKWGCLWGN (not fully specified (bridges); cysteine pairing not given here, on phage) [RBC-R12]	–	binds	–
LIFMEDVCLPQWGCLWEDGV (on phage) [RB-R16]	–	binds	binding result (human serum albumin): binds; binding result (rabbit serum albumin [2]): binds
MDDICLHHWGCLWDE (on phage) [RBC-R1]	–	binds	–
Ac-IEDICLPRWGCLWED-NH2 (not fully specified (bridges); printed as Ac IEDICLPRWGCLWEDNH2; cysteine pairing not given here, free peptide) [SA24]	1380	–	–
DICLPRWGCL-NH2 (not fully specified (bridges); printed as DICLPRWGCLNH2; cysteine pairing not given here, free peptide) [SA19]	24500	–	–
HRLVEDICLPRWGCLWGNDF (not fully specified (bridges); cysteine pairing not given here; also: phage-displayed, on phage) [RB-B16]	–	binds	binding result (human serum albumin): binds; binding result (rabbit serum albumin [2]): binds
QGDFWDICLPRWGCLSGEGY (on phage) [RB-B10]	–	binds	binding result (rabbit serum albumin [2]): binds
EWDVCFPAWGCLWDQ (on phage) [RBC-R18]	–	binds	–
EFDLCLPTWGCLWED (on phage) [RBC-R13]	–	binds	–
MDDLCLPNWGCLWGD (not fully specified (bridges); cysteine pairing not given here, on phage) [RBC-R2]	–	binds	–
EEDVCLPVWGCLWEG (on phage) [RBC-R20]	–	binds	–
DSCGDLLRLGLECWA (on phage) [RD-R6]	–	binds	–
NWDLCFPDWGCLWDD (on phage) [RBC-R8]	–	binds	–
GENWCDWVLLAYDLCGEDNT (on phage) [BA-B37]	–	–	binding result (rabbit serum albumin [2]): binds
EEDLCLPVWGCLWGA (on phage) [RBC-R14]	–	binds	–
Ac-EDICLPRWGCLW-NH2 (disulfide 4-10 (inferred), free peptide) [SA32]	2170	–	–
Ac-QRLIEDICLPRWGCLWEDDF-NH2 (not fully specified (bridges); printed as Ac QRLIEDICLPRWGCLWEDDF NH2; cysteine pairing not given here, free peptide) [SA20]	260	–	–
FEDLCVVRWGCLWGD (not fully specified (bridges); cysteine pairing not given here, on phage) [RBC-R6]	–	binds	–
SEDFCLPVWGCLWED (not fully specified (bridges); cysteine pairing not given here, on phage) [RBC-R9]	–	binds	–
QRDMGDICLPRWGCLWEDGV (not fully specified (bridges); cysteine pairing not given here; also: phage-displayed, on phage) [HC-R10]	–	binds	binding result (human serum albumin): binds; binding result (rabbit serum albumin [2]): binds
Ac-RLIEDICLPRWGCLW-NH2 (disulfide 7-13 (inferred), free peptide) [SA31]	200	–	–
DTCADLVRLGLECWA (on phage) [RD-R2]	–	binds	–
NTCADLVRLGLECWA (on phage) [RD-R7]	–	binds	–

Binder	IC50 (rabbit serum albumin [1]) [nM]	binding result (rat serum albumin)	also measured
DTCEDLVRLGLECWA (on phage) [RD-R5]	–	binds	–
MELWCDSTLMAYDLCGDFNM (on phage) [BA-B39]	–	–	binding result (rabbit serum albumin [2]): binds
MWDVCFPDWGCLWDV (not fully specified (bridges); cysteine pairing not given here, on phage) [RBC-R15]	–	binds	–
Ac-RLIEDICLPRWGCLWE-NH2 (disulfide 7-13 (inferred), free peptide) [SA29]	400	–	–
DTCDDLVQLGLECWA (on phage) [RD-R11]	–	binds	–
QSYMEDICLPRWGCLSDDAS (not fully specified (bridges); cysteine pairing not given here; also: phage-displayed, on phage) [RB-B3]	–	binds	binding result (rabbit serum albumin [2]): binds
Ac-DICLPRWGCL-NH2 (disulfide 3-9 (inferred), free peptide) [SA34]	28200	–	–
Ac-ICLPRWGCLWED-NH2 (disulfide 2-8 (inferred), free peptide) [SA27]	86700	–	–
LRIFEDICLPKWGCLWGEGF (on phage) [RB-B14]	–	binds	binding result (rabbit serum albumin [2]): binds
QMHMMDICLPKWGCLWGDTS (not fully specified (bridges); cysteine pairing not given here, on phage) [RB-B9]	–	binds	binding result (rabbit serum albumin [2]): binds
ICLPRWGCLW-NH2 (not fully specified (bridges); printed as ICLPRWGCLWNH2; cysteine pairing not given here, free peptide) [SA18]	125000	–	–
FEDFCLPNWGCLWGS (on phage) [RBC-R4]	–	binds	–
Ac-IEDICLPRWGCLWE-NH2 (disulfide 5-11 (inferred), free peptide) [SA30]	1800	–	–
VWDLCLPQWGCLWDE (on phage) [RBC-R11]	–	binds	–
Ac-EDICLPRWGCLWED-NH2 (not fully specified (bridges); printed as Ac EDICLPRWGCLWEDNH2; cysteine pairing not given here, free peptide) [SA25]	2730	–	–
Ac-RLIEDICLPRWGCLWED-NH2 (not fully specified (bridges); printed as Ac RLIEDICLPRWGCLWEDNH2; cysteine pairing not given here, free peptide) [SA22]	430	–	–
QGLIGDICLPRWGCLWGDSV (on phage; also called RB-R8) [RB-B12]	–	binds	binding result (human serum albumin): binds; binding result (rabbit serum albumin [2]): binds
DFDLCLPDWGCLWDD (on phage) [RBC-R10]	–	binds	–
Ac-LIEDICLPRWGCLWED-NH2 (not fully specified (bridges); printed as Ac LIEDICLPRWGCLWEDNH2; cysteine pairing not given here, free peptide) [SA23]	360	–	–
RWQTEDVCLPKWGCLFGDGV (not fully specified (bridges); cysteine pairing not given here; also: phage-displayed, on phage) [RB-B1]	–	binds	binding result (rabbit serum albumin [2]): binds
WEDLCLPDWGCLWED (not fully specified (bridges); cysteine pairing not given here, on phage) [RBC-R5]	–	binds	–
GEDWCDSTLLAFDLCGEGAR (on phage) [BA-B44]	–	–	binding result (rabbit serum albumin [2]): binds
Ac-RLIEDICLPRWGCL-NH2 (disulfide 7-13 (inferred), free peptide) [SA33]	4310	–	–
DTCSDLVGLGLECWA (on phage) [RD-R1]	–	binds	–
